Data: patent US20190100597A1

Target: human CD20 on CD20-expressing cell lines (human) (UniProt P11836)
Assay: cell-based or functional assay

Chain of rituximab-derived anti-human CD20 IgM+J (antibody) (heavy): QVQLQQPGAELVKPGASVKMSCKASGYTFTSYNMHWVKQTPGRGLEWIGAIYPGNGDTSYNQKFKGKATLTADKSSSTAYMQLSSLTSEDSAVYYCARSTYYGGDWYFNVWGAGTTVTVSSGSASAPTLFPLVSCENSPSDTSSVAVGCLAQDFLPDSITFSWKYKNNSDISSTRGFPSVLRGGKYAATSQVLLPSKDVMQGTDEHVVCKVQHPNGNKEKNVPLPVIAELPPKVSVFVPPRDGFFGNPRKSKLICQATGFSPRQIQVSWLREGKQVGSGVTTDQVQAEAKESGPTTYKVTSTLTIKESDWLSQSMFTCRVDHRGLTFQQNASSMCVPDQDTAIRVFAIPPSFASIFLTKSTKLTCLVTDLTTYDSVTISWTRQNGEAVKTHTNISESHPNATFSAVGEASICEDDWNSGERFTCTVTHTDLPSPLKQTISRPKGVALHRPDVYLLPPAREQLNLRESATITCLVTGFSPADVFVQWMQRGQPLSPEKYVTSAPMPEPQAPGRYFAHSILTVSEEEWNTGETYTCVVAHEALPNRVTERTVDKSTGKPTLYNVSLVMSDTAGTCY
Chain of rituximab-derived anti-human CD20 IgM+J (antibody) (light): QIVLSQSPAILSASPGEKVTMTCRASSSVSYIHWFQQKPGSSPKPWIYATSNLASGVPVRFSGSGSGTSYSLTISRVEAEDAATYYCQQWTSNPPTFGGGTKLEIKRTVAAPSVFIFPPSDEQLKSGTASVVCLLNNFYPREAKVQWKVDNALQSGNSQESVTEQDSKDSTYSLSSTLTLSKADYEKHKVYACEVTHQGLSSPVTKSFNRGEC
Chain of rituximab-derived anti-human CD20 IgM+J (antibody) (chain): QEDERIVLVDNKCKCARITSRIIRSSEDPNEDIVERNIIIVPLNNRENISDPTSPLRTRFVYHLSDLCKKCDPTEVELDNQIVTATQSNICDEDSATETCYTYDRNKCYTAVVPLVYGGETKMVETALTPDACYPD
Chain of human CD20 on CD20-expressing cell lines (human) (P11836 whole entry): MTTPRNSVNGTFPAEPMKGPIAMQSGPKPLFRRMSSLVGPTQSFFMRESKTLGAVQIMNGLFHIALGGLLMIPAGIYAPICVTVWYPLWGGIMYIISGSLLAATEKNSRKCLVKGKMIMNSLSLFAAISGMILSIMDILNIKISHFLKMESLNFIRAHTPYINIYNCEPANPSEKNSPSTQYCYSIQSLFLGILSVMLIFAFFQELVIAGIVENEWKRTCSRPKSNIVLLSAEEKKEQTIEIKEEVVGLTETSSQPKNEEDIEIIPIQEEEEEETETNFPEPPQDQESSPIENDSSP

CDC (IC50) on Raji cells: 2 µg/mL | CDC EC50 on DOHH-2 cells: 0.09 nM | CDC EC50 on Z-138 cells: 0.41 nM
Substance: rituximab-derived anti-human CD20 IgM+J (antibody)
